This experiment deals with adaptor protein 1A complex (AP-1A; γ/β1/μ1A/σ1), endogenous, mouse (mouse (endogenous in pituitary and in AtT-20)) (UniProt P22892). As to the kind of experiment: co-IP.
UniProt P22892, sequence (P22892 whole entry, chain 1 of 4): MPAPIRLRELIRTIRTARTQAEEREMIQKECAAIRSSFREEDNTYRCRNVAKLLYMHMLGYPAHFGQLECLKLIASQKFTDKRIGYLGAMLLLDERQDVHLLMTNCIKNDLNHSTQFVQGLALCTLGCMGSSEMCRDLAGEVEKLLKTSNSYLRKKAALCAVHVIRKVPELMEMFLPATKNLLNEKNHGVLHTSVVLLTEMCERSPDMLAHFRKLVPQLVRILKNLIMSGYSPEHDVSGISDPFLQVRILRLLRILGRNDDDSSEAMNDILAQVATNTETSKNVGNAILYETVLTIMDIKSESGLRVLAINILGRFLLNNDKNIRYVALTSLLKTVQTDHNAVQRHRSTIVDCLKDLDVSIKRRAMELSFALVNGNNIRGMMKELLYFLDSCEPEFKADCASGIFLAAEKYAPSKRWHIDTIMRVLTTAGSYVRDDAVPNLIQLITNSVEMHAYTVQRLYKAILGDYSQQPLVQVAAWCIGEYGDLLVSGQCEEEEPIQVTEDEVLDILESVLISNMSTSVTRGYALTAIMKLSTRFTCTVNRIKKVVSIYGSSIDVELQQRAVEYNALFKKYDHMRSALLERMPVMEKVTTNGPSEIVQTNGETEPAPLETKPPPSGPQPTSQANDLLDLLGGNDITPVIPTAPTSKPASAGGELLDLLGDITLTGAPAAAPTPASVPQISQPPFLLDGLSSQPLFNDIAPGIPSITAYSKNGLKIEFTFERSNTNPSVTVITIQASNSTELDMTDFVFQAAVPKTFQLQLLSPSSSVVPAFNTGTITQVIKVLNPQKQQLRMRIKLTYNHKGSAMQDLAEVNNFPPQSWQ
UniProt P22892, sequence (O35643 whole entry, chain 2 of 4, further chain): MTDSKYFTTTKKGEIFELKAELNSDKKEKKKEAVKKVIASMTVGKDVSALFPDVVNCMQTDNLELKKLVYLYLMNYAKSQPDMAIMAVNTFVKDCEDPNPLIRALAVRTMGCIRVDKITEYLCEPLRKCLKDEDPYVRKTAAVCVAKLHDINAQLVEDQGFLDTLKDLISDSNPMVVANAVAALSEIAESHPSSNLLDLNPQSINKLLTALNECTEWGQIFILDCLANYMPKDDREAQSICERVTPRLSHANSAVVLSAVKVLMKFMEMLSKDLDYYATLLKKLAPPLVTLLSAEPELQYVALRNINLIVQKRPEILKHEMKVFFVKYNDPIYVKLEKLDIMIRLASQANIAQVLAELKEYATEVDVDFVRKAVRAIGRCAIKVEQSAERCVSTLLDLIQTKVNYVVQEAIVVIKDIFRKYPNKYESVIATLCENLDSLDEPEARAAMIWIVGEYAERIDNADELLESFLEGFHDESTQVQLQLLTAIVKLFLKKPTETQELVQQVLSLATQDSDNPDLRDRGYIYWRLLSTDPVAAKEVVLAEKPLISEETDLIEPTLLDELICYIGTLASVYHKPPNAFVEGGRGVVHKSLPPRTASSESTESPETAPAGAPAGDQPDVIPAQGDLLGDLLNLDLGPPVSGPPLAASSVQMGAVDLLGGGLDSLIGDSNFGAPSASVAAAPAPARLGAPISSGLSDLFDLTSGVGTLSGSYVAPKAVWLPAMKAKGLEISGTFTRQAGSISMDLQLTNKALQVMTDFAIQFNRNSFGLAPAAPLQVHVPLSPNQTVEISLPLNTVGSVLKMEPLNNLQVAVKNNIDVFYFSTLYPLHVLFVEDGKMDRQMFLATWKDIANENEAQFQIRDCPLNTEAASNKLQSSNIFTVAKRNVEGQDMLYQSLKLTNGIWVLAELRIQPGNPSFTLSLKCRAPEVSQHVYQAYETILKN
UniProt P22892, sequence (P35585 whole entry, chain 3 of 4, further chain): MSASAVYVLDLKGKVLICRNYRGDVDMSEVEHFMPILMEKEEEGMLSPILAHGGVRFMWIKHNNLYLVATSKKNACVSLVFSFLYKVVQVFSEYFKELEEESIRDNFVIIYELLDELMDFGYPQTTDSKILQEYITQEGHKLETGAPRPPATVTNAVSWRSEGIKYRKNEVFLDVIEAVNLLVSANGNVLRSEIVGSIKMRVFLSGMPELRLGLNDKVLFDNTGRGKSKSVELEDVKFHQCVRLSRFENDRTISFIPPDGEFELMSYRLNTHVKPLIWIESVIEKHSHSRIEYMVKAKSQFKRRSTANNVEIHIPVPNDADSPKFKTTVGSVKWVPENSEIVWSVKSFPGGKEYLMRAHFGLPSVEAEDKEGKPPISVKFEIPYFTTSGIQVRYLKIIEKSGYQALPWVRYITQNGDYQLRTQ
UniProt P22892, sequence (P61967 whole entry, chain 4 of 4, further chain): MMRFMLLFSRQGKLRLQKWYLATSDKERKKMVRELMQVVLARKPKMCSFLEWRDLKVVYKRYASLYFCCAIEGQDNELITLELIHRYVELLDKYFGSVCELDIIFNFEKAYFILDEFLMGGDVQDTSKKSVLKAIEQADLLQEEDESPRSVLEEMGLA

B1: PAM-1, stably expressed in AtT-20 cells (natural protein)
chain: FKETTRSFSNECLGTIGPVTPLDASDFALDIRMPGVTPKESDTYFCMSMRLPVDEEAFVIDFKPRASMDTVHHMLLFGCNMPSSTGSYWFCDEGTCTDKANILYAWARNAPPTRLPKGVGFRVGGETGSKYFVLQVHYGDISAFRDNHKDCSGVSVHLTRVPQPLIAGMYLMMSVDTVIPPGEKVVNADISCQYKMYPMHVFAYRVHTHHLGKVVSGYRVRNGQWTLIGRQNPQLPQAFYPVEHPVDVTFGDILAARCVFTGEGRTEATHIGGTSSDEMCNLYIMYYMEAKYALSFMTCTKNVAPDMFRTIPAEANIPIPVKPDMVMMHGHHKEAENKEKSALMQQPKQGEEEVLEQGDFYSLLSKLLGEREDVHVHKYNPTEKTESGSDLVAEIANVVQKKDLGRSDAREGAEHEEWGNAILVRDRIHRFHQLESTLRPAESRAFSFQQPGEGPWEPEPSGDFHVEEELDWPGVYLLPGQVSGVALDSKNNLVIFHRGDHVWDGNSFDSKFVYQQRGLGPIEEDTILVIDPNNAEILQSSGKNLFYLPHGLSIDTDGNYWVTDVALHQVFKLDPHSKEGPLLILGRSMQPGSDQNHFCQPTDVAVEPSTGAVFVSDGYCNSRIVQFSPSGKFVTQWGEESSGSSPRPGQFSVPHSLALVPHLDQLCVADRENGRIQCFKTDTKEFVREIKHASFGRNVFAISYIPGFLFAVNGKPYFGDQEPVQGFVMNFSSGEIIDVFKPVRKHFDMPHDIVASEDGTVYIGDAHTNTVWKFTLTEKMEHRSVKKAGIEVQEIKEAEAVVEPKVENKPTSSELQKMQEKQKLSTEPGSGVSVVLITTLLVIPVLVLLAIVMFIRWKKSRAFGDHDRKLESSSGRVLGRFRGKGSGGLNLGNFFASRKGYSRKGFDRVSTEGSDQEKDEDDGTESEEEYSAPLPKPAPSS
As for B1, the percent of PAM-1 co-immunoprecipitated worked out at 2%.

B2: peptidylglycine α-amidating monooxygenase-1 (PAM-1), endogenous in mouse pituitary (natural protein)
chain: FKETTRSFSNECLGTTRPITPIDSSDFTLDIRMPGVTPKESDTYFCMSMRLPVDEEAFVIDFKPRASMDTVHHMLLFGCNMPSSTGSYWFCDEGTCTDKANILYAWARNAPPTRLPKGVGFRVGGETGSKYFVLQVHYGDISAFRDNHKDCSGVSLHLTRVPQPLIAGMYLMMSVNTVIPPGEKVVNSDISCHYKMYPMHVFAYRVHTHHLGKVVSGYRVRNGQWTLIGRQSPQLPQAFYPVEHPVDVAFGDILAARCVFTGEGRTEATHIGGTSSDEMCNLYIMYYMEAKHAVSFMTCTQNVAPDMFRTIPEEANIPIPVKSDMVMIHGHHKETENKEKSALIQQPKQGEEEAFEQGDFYSLLSKLLGEREDVVHVHKYNPTEKTESGSDLVAEIANVVQKKDLGRSDAREGAEHEEGGNAILVRDRIHKFHRLESTLRPAESRALSFQQPGEGPWEPELAGDFHVEEALEWPGVYLLPGQVSGVALDSKNNLVIFHRGDHVWDGNSFDSKFVYQQRGLGPIEEDTILVIDPNKAEILQSSGKNLFYLPHGLSIDTDGNYWVTDVALHQVFKLEPRSKEGPLLVLGRSMQPGSDQNHFCQPTDVAVEPSTGAVFVSDGYCNSRIVQFSPSGKFITQWGEESSGSSPKPGQFSVPHSLALVPHLNQLCVADRENGRIQCFKTDTKEFVREIKHASFGRNVFAISYIPGFLFAVNGKPYFGDQEPVQGFVMNFSSGEIIDVFKPVRKHFDMPHDIVASEDGTVYIGDAHTNTVWKFTLTESRLEVEHRSVKKAGIEVPEIKEAEAVVEPKVKNKPTSSELQKMQEKKKLIKDPGSGVPVVLITTLLVIPVVVLLAIAMFIRWKKSRAFGDHDRKLESSSGRVLGRLRGKGSSGLNLGNFFASRKGYSRKGFDRVSTEGSDQEKDEDDGSESEEEYSAPLPTPAPSS
On to B2, for which the percent of PAM-1 co-immunoprecipitated is 3%.

The record behind these values is publication PMC4167924.
